Reference: patent US20230052369A1 (Zymeworks, published 2023)
Where a chain is given by its changes, count along the chain named. Values belong to the binder of their own block, whether it stands above or below them.

Key:
[1] = molecular target: T1, Mouse 4-1BB-Flag, on HEK293-6e cells (Mouse (Mus musculus), UniProt P20334 24-208); assay: CellInsight cell binding, transfected HEK293-6e
T1 construct: also called CL#11063

[2] = molecular target: T2, Cyno 4-1BB-Flag, on HEK293-6e cells (Cynomolgus (Macaca fascicularis)); assay: CellInsight cell binding, transfected HEK293-6e
T2 construct: also called Cynomolgus 4-1BB; CL#11070
T2 chain: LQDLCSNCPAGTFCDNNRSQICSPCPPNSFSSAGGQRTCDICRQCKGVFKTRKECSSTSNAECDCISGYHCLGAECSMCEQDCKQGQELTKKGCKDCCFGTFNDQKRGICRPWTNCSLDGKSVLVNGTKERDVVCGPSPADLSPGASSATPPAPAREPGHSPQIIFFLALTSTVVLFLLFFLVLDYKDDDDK

[3] = molecular target: T3, 4-1BB dog-human (human-dog chimeric 4-1BB ECD-TEV-IgG1 Fc-10x His) (human with dog residues in domain 4); assay: ELISA, coated 4-1BB-Fc
T3 construct: Human 4-1BB ECD with K115Q, C121R, R134Q, R154S and V156A (already in the entry); also called dog-human chimeric 4-1BB; hybrid 4-1BB
T3 sequence (chain, as listed by the source mutant limits assumed): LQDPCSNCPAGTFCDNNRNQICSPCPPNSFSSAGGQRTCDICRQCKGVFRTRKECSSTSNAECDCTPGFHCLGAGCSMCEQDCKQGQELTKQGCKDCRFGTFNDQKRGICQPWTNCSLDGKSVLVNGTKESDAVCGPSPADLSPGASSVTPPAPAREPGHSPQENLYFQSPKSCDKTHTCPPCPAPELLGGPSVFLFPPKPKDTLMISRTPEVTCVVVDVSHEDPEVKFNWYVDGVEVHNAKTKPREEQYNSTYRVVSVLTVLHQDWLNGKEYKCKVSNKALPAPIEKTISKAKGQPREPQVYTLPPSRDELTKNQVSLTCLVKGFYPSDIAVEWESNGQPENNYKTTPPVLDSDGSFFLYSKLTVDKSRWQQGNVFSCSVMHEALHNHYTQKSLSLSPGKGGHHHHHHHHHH

[4] = molecular target: T4, 4-1BB dog (dog 4-1BB ECD-TEV-IgG1 Fc-10x His) (dog); assay: ELISA, coated 4-1BB-Fc
T4 construct: Uniprot E2R1R9 residues 24-186 fused to TEV site, IgG1 Fc and His tag
T4 sequence (chain, as listed by the source limits assumed): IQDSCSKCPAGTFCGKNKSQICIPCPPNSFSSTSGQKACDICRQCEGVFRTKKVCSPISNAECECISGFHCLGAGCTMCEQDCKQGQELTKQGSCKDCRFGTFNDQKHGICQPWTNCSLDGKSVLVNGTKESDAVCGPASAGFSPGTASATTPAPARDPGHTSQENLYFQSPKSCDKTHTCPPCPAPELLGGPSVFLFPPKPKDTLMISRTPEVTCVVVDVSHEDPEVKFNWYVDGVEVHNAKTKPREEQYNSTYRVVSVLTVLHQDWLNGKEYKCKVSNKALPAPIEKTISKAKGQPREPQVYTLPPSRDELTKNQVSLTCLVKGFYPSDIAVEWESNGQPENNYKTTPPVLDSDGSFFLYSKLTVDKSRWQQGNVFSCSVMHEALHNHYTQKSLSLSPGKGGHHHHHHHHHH

[5] = molecular target: T5, 4-1BB human (human 4-1BB ECD-TEV-IgG1 hinge-CH2-CH3-10x His) (human); assay: ELISA, coated 4-1BB-Fc
T5 construct: 4-1BB residues 24-186 fused to TEV site, IgG1 Fc and His tag; the entry is the whole fusion; also called soluble human 4-1BB-Fc
T5 sequence (chain, as listed by the source limits assumed): as the sequence (chain, as listed by the source mutant limits assumed) above, with Q92K, R98C, Q111R, S131R, A133V counted along it

[6] = molecular target: T6, truncated human 4-1BB domain 3 and 4 only construct (residues 86-255), on cells (human, UniProt Q07011 86-255); assay: flow cytometry, transfected 293E6 cells
T6 construct: on 293E6 cells co-transfected with mouse 4-1BB; also called 4-1BB domain 3 and 4 only construct (amino acids 86-255)
T6 sequence (Q07011 86-255): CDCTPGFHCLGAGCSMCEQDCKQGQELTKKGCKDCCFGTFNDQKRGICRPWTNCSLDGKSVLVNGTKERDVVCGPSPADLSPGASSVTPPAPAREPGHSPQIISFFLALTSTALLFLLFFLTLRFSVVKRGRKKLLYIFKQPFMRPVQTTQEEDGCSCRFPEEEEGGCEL

[7] = molecular target: T7, human 4-1BB, full-length, expressed on cells (human, UniProt Q07011 24-255); assay: flow cytometry, transfected 293E6 cells
T7 construct: also called CD137; TNFRSF9
T7 sequence (Q07011 24-255): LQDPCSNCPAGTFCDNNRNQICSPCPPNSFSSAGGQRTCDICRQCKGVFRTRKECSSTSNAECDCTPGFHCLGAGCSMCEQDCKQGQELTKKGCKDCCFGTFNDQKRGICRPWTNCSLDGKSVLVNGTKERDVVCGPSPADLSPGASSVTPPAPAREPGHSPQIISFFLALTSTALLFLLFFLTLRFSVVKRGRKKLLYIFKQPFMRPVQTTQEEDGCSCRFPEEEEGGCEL

[8] = molecular target: T7, human 4-1BB, full-length, expressed on …; assay: flow cytometry, Jurkat-4-1BB
[9] = molecular target: T8, purified human monomeric 4-1BB (human, UniProt Q07011 24-186); assay: SPR, mean n=3;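 note: antibodies captured on anti-human Fc chip, 4-1BB injected as five-point two-fold series from 40 nM by single-cycle kinetics at 25 °C, sensorgrams fitted to 1:1 Langmuir model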
T8 construct: the assay used the 4-1BB part released by Factor Xa with the Fc removed; also called h4-1BB; human 4-1BB
T8 sequence (Q07011 other isoform, or with tags, fused parts or gaps limits assumed): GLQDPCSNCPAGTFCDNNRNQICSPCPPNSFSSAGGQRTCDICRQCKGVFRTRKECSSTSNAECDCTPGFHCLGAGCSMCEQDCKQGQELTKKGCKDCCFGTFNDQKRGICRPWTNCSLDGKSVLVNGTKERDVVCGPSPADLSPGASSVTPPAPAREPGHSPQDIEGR

T1 sequence (P20334 other isoform, or with tags, fused parts or gaps limits assumed): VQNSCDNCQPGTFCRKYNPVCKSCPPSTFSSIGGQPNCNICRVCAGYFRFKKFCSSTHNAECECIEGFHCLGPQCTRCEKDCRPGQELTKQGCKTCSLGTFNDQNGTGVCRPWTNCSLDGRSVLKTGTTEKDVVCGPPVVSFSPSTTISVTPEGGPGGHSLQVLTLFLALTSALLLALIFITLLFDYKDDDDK

B1: v20025 (antibody, human IgG1, kappa, L234A L235A, V domains shown)
VH: QVQLKQSGPGLVQPSQSLSITCTVSGFSLTSYGVHWVRQSPGKGLEWLGVIWSGGSTDYNAAFISRLSISKDNSKSQVFFKMNSLQADDTAIYYCARNPLTATVMDYWGQGTSVTVSS
VL: DIVMTQSQKFMSTSVGDRVSVTCKASQNVGTNVAWYQQKPGQSRTVLIYSASYRHSGVPDRFTGSGSGTDFTLTISNVQSEDLAEYFCQQYNSYPLTFGTGTKLELKR
notes: Mouse-human chimera; also called 2E8
binding result [1]: no binding | binding result [2]: binds | binding result [3]: binds | binding result [4]: no binding | binding result [5]: binds | binding result [6]: no binding (tested: 2.5 µg of antibody) | binding result [7]: binds

B2: v20036 (antibody, human IgG1, kappa, L234A L235A, V domains shown)
VH: B1 VH with K5Q, Q6E, S15T, T30I
VL: B1 VL with R44P, T45K, V46A, H55D, F87L, T100A
notes: Mouse-human chimera; also called 5G8; 5G8 mouse-human parental chimera
EC50 [8]: 16.9 nM | Kd [9]: 266 nM | binding result [1]: no binding | binding result [3]: binds | binding result [4]: no binding | binding result [5]: binds | binding result [6]: no binding (tested: 2.5 µg of antibody)

B4: v20037 (antibody, human IgG1, kappa, L234A L235A, V domains shown)
VH: QVQLKESGPGLVAPSQSLSITCTVSGFSLTSYAISWVRQPPGKGLEWLGVIWPGGGTNYNSALKSRLSISKDNSKSQVFLKMNSLQTDDTARYYCARGTGTWYFDVWGAGTTVTVSS
VL: DIQMTQTTSSLSASLGDRVTISCSASQGISNYLNWYQQKPDGTVKLLIYYTSSLHSGVPSRFSGSGSGTDYSLTISNLEPEDIATYYCQQYSDLPWTFGGGTKLEIKR
notes: Mouse-human chimera; also called 6B3
binding result [1]: no binding | binding result [3]: binds | binding result [4]: no binding | binding result [5]: binds | binding result [6]: no binding (tested: 2.5 µg of antibody) | binding result [7]: binds

Results, then the binder that gave them:

binding result [1]: no binding | binding result [2]: binds | binding result [4]: binds | binding result [5]: binds | binding result [6]: no binding (tested: 2.5 µg of antibody) | binding result [7]: binds
B3: v20029 (antibody, human IgG1, kappa, L234A L235A, V domains shown)
VH: QVQLQESGGGLVKPGGSRKLSCAASGFTFSEFGMHWVRQAPDKGLEWVAYISSGSSTIYYADTVKGRFTISRDNAKNTLFLQMTSLRSEDTAMYYCARDWVDYWGQGTALTVSS
VL: NIVMTQSPKSMSMSVGERVTLSCKASENVGSYVSWYQQKPEKSPKLLIYGASNRYTGVPDRFTGSGSATDFTLTISSVQAEDLADYHCGQSYSYPLTFGAGTKLELKR
notes: Mouse-human chimera; also called 3E7

EC50 [8]: 17.3 nM | Kd [9]: 582 nM | binding result [1]: no binding | binding result [2]: binds | binding result [3]: binds | binding result [4]: no binding | binding result [5]: binds | binding result [6]: no binding (tested: 2.5 µg of antibody)
B5: v20022 (antibody, human IgG1, kappa, L234A L235A, V domains shown)
VH: B4 VH with S31T, V50I, K75R, T99A
VL: B4 VL with T7S, L15V, D93K, L94F
notes: Mouse-human chimera; also called 1C8; 1C8 mouse-human parental chimera

binding result [1]: no binding | binding result [3]: binds | binding result [4]: no binding | binding result [5]: binds | binding result [6]: no binding (tested: 2.5 µg of antibody) | binding result [7]: binds
B6: v20032 (antibody, human IgG1, kappa, L234A L235A, V domains shown)
VH: B4 VH with S35N, I51L, T99S
VL: B4 VL with I21F, S56L, D93K
notes: Mouse-human chimera; also called 4E6
